Assay results as given in paper PMC9236607, “TUBA1A tubulinopathy mutants disrupt neuron morphogenesis and override XMAP215/Stu2 regulation of microtubule dynamics” (eLife, 2022).

Target: T1, purified budding yeast tubulin heterodimer, Tub1-WT (internal 6X-His) with Tub2 (S. cerevisiae, UniProt P09733 1-447; P02557 1-457)
T1 construct: alpha-tubulin Tub1, S. cerevisiae, from pRS426-GAL-Tub1-internal 6X-His (Johnson et al., 2011); beta-tubulin Tub2, S. cerevisiae, untagged, from pRS424-GAL-Tub2 (Johnson et al., 2011); also called WT tubulin; WT yeast tubulin; source: S. cerevisiae JEL1 (protease deficient), overexpressed from GAL plasmids, purified (His60 Ni column, HiTrap Q)
T1 sequence (P09733 whole entry, chain 1 of 2): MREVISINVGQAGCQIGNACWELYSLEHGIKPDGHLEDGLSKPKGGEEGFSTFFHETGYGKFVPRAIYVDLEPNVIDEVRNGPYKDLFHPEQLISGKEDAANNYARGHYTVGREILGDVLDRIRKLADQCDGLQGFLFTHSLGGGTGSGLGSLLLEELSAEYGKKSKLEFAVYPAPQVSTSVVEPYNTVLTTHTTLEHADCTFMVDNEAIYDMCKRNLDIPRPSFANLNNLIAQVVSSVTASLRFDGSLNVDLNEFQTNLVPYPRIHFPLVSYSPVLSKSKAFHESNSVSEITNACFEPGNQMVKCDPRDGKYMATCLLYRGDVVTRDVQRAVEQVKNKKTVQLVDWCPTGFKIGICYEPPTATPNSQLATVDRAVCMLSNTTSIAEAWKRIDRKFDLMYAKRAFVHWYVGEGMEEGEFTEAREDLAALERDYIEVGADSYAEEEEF
T1 sequence (P02557 whole entry, chain 2 of 2): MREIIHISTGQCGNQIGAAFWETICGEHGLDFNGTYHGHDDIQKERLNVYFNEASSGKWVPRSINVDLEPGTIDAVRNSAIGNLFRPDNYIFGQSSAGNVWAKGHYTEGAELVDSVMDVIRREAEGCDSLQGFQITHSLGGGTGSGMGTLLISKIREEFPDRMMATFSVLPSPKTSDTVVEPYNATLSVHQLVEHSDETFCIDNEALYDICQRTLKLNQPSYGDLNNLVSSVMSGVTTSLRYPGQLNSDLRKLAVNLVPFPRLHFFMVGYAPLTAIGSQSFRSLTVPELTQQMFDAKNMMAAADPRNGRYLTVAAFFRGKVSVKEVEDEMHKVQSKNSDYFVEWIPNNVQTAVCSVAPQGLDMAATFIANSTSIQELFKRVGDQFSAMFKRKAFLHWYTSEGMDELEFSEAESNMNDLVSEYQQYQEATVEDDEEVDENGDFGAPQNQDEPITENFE
Test: pull-down; 100 nM tubulin mixed with 9.8 nM to 5 µM GST-TOG1/2 at 4°C for 15 min, then glutathione magnetic agarose beads, 4°C, 1 hr; beads equilibrated in 125 mM Tris-HCl, 150 mM KCl, 1 mM DTT, 1 mM EDTA, pH 7.4; unbound tubulin left in the supernatant read by western blot for α- and β-tubulin
Conditions: both partners purified

binding result: binds
B1: GST-TOG1/2 (the two TOG domains of Stu2 fused to a GST tag, Stu2 1-590) (domain or fragment, S. cerevisiae, UniProt P46675 1-590, looked up)
chain: MSGEEEVDYTTLPLEERLTYKLWKARLEAYKELNQLFRNSVGDISRDDNIQIYWRDPTLFAQYITDSNVVAQEQAIVALNSLIDAFASSSLKNAHNITLISTWTPLLVEKGLTSSRATTKTQSMSCILSLCGLDTSITQSVELVIPFFEKKLPKLIAAAANCVYELMAAFGLTNVNVQTFLPELLKHVPQLAGHGDRNVRSQTMNLIVEIYKVTGNNSDLLEEILFKKLKPIQVKDLHKLFAKVGDEPSSSKMLFEWEKRELEKKRSQEEEARKRKSILSNDEGEYQIDKDGDTLMGMETDMPPSKQQSGVQIDTFSMLPEETILDKLPKDFQERITSSKWKDRVEALEEFWDSVLSQTKKLKSTSQNYSNLLGIYGHIIQKDANIQAVALAAQSVELICDKLKTPGFSKDYVSLVFTPLLDRTKEKKPSVIEAIRKALLTICKYYDPLASSGRNEDMLKDILEHMKHKTPQIRMECTQLFNASMKEEKDGYSTLQRYLKDEVVPIVIQIVNDTQPAIRTIGFESFAILIKIFGMNTFVKTLEHLDNLKRKKIEETVKTLPNFSIASGSTHSTIETNKQTGPMENKFLLK
notes: Stu2 (yeast homologue of XMAP215), S. cerevisiae, residues 1-590 with the TOG1 and TOG2 domains, from pGEX-6P-1 Stu2 1-590 (Widlund et al., 2012); also called Stu2 TOG1/2 domains; Stu2 TOG1/TOG2 domains; source: E. coli BL21, purified (GSTrap HP, eluted with reduced glutathione); not shown: GST, N-terminal, kept
